From the supplement of paper PMC11780869

Tested on: Bacillus subtilis
Experiment: cleaved RNA product abundance (RNA/gDNA barcode ratio) relative to median wild-type variant (ratio to wild type); higher = more accumulation of the downstream cleavage product
Experimental: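 MPRA in B. subtilis. Mutagenized RNase Y cleavage-site regions (9% mutation rate) were inserted into a barcoded reporter mRNA (truncated aprE or tetM). Cells were grown in LB at 37°C to OD600 0.3. The cleaved RNA isoform was gel-purified and its barcodes counted; the RNA:gDNA barcode ratio was normalised to the median wild-type variant, and the median over barcodes is reported per variant. The printed sequence is the variable window only; the reporter flanks are not printed.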

[1] = experiment (reporter, strain, medium): exp 2b: truncated aprE reporter, strain BJT200, cleavage site: cggR-gapA (positions -7 to +36 mutated)
[2] = experiment (reporter, strain, medium): exp 4a: truncated aprE reporter, strain BJT201 with 2% xylose (RNase J1 expressed), cleavage site: cggR-gapA (positions -7 to +36 mutated)
[3] = experiment (reporter, strain, medium): exp 8a: truncated aprE reporter, strain BJT201 with 2% xylose (RNase J1 expressed), cleavage site: glnRA (positions -5 to +31 mutated)

Sequence | cleaved RNA product abundance [1] | cleaved RNA product abundance [2] | cleaved RNA product abundance [3]
ACAGACGAAGGAGCCGCAAAGAAGTTATTAAGGGATGAATAATCCTTCAATATAAACATCTCTCACTTATTTAAA | 0.415 | 0.33 | 
ACAGACGAAGGAGCCGCAAAGAAGTTATTAAGGGATGAATAATCCCTTTATATAAATATCTCTCACTTATTTAAA | 1.14 | 0.977 | 
ACAGACGAAGGAGCCGCAAAGAAGTTATTAAGGGAGGAATAATTCCTCAATATAAATATCTCTCACTTATTTAAA |  | 0.0856 | 
CGACATGTCCCGCTTCTTTCATTATTCCGTTAACAACTGTTTTGCTATATTCATTTACCTTTTAAGAGGAGGAAT |  |  | 0.155
ACAGACGAAGGAGCCGCAAAGAAGTTATTAAAGGGATGAATAATCCCTCAATATAAATATCTCTCACTTATTTAA | 0.283 | 0.35 | 
CGACATGTCCCGCTTCTTTCATTAATCCGTTACCAACTGTTTTGTTATATACATTTACCTTTTAAGAGGAGGAAT |  |  | 0.231
ACAGACGAAGGAGCCGCAAAGATGTTATTAAGGGATGAATAATCCCTCAACATAAATATCTCTCACTTATTTAAA |  | 0.223 | 
CGACATGTCCCGCTTCTTTCATTAATAGGTTAGCAACTGTTTTGCTATATACATTTACCTTTTAAGAGGAGGAAT |  |  | 0.766
ACAGACGAAGGAGCCGCAAAGAAGTTATTAAGGGATGAATAATCACTCAATAAAAATATCTCTCACTTATTTAAA |  | 0.0861 | 
CGACATGTCCCGCTTCTTTCATTAATCCGTTAGCAACCTTTTTGCTATATACATTTACCTTTTAAGAGGAGGAAT |  |  | 1.44
ACAGACGAAGGAGCCGCAAAGAAATTATTAAGGGATGAATAATCCCACAATATAAATATCTCTCACTTATTTAAA | 0.195 | 0.298 | 
ACAGACGAAGGAGCCGCAAAGAAGTTATTAAGAGATGATTAATCCCTCAATATAAATATCTCTCACTTATTTAAA |  | 0.173 | 
ACAGACGAAGGAGCCGCAAAGAAGTTATAAAGGGATGAATAATCCCTCACTATAAATATCTCTCACTTATTTAAA |  | 0.322 | 
ACAGACGAAGGAGCCGCAAAGAAGTTATTAAGGGATGAATAATCACTCAAAATAAATATCTCTCACTTATTTAAA | 0.0846 | 0.122 | 
CGACATGTCCCGCTTCTTTCATTAATCCGTTAGCAAATGTTTTGCTACATACATTTACCTTTTAAGAGGAGGAAT |  |  | 0.354
ACAGACGAAGGAGCCGCAAAGACGTTATTAAGGGATCAATAATCCCTCAATATAAATATCTCTCACTTATTTAAA |  | 0.743 | 
CGACATGTCCCGCTTCTTTCATTAATCCTTTAGCAACTGTTTTGCTATAAACATTTACCTTTTAAGAGGAGGAAT |  |  | 0.176
ACAGACGAAGGAGCCGCAAAGAAGTTATTAAGGGATGAATAATCCCTCACTATAAATAACTCTCACTTATTTAAA | 0.175 | 0.285 | 
ACAGACGAAGGAGCCGCAAAGAAGTTATTAAGGGTTTAATAATCCCTCAATATAAATATCTCTCACTTATTTAAA | 0.63 | 0.667 | 
ACAGACGAAGGAGCCGCAAAGAAATTATTAAGTGATGAATAATCCCTCAATATAAATATCTCTCACTTATTTAAA | 0.107 | 0.125 | 
CGACATGTCCCGCTTCTTTCATTATTCCGTTAGCAACTGTTTTCCTATATACATTTACCTTTTAAGAGGAGGAAT |  |  | 0.524
ACAGACGAAGGAGCCGCAAAGAAGTTATTACTGGATGAATAATCCCTCAATATAAATATCTCTCACTTATTTAAA |  | 0.199 | 
CGACATGTCCCGCTTCTTTCATTACTGCGTTAGCAACTGTTTTGCTATATACATTTACCTTTTAAGAGGAGGAAT |  |  | 1.68
ACAGACGAAGGAGCCGCAAAGAAGTTATTAAGGGATGAATAATCAATCAATATAAATATCTCTCACTTATTTAAA | 0.13 | 0.107 | 
CGACATGTCCCGCTTCTTTCATTATTCCGTTAGCAACTGTTTTGCTATATACATATACCTTTTAAGAGGAGGAAT |  |  | 1.59
